According to publication PMC8886817:

What was measured:
[1] = target: GST-549-SNAP-N-IQGAP1 (GST-SNAP-N-IQGAP1-6His, 1–522) (UniProt P46940); experiment: single-molecule step photobleaching
[2] = target: Rabbit skeletal muscle actin (RMA), as actin filaments (F-actin) (rabbit) (UniProt P68135); experiment: single-molecule microfluidics-assisted TIRF
[3] = target: Rabbit skeletal muscle actin (RMA), as actin filaments (F-actin) (rabbit) (UniProt P68135); experiment: open-flow TIRF microscopy of single filament growth

Row | Substance | stoichiometry N [1] | average dwell time on filament sides [2] | koff [2] | average pause time [3]
1 | GST-549-SNAP-N-IQGAP1 (GST-SNAP-N-IQGAP1-6His, 1–522) (from UniProt P46940 1-522) (domain or fragment) | 2 | 6.8 min | 0.0025 s⁻¹ | 
2 | GST-C-IQGAP1 (675–1657) (from UniProt P46940 675-1657) (domain or fragment) |  |  |  | 14.7 s
